{
  "source": "paper PMC5066616",
  "about": "“Rapid dynamics of general transcription factor TFIIB binding during preinitiation complex assembly revealed by single-molecule analysis”",
  "molecules": {"B1": {"name": "Supercore promoter template, EMSA (dsDNA)", "DNA 1": "CATAACCATATGTATCATACACATACGGTACTTATATAAGGGGGTGGGGGCGCGTTCGTCCTCAGTCGCGATCGAACACTCGAGCCGAGCAGACGTGCCTACGGACCGCAAGCTTCCCTATCCCTTATCTTAACCACTCCAATTACATACACC", "DNA 2": "GGTGTATGTAATTGGAGTGGTTAAGATAAGGGATAGGGAAGCTTGCGGTCCGTAGGCACGTCTGCTCGGCTCGAGTGTTCGATCGCGACTGAGGACGAACGCGCCCCCACCCCCTTATATAAGTACCGTATGTGTATGATACATATGGTTATG"}, "B2": {"name": "Mutant control template, EMSA (dsDNA)", "DNA 1": "CATAACCATATGTATCATACACATACGGTACACGTATGTGGGGGTGGGGGCGCGTTCGTCCTGTGACACGATCGAACACTCGAGCCGAGCAGCATAGCCTACGGACCGCAAGCTTCCCTATCCCTTATCTTAACCACTCCAATTACATACACC", "DNA 2": "GGTGTATGTAATTGGAGTGGTTAAGATAAGGGATAGGGAAGCTTGCGGTCCGTAGGCTATGCTGCTCGGCTCGAGTGTTCGATCGTGTCACAGGACGAACGCGCCCCCACCCCCACATACGTGTACCGTATGTGTATGATACATATGGTTATG"}},
  "key": {"[1]": {"biological_target": "TFIID–TFIIA complex on promoter DNA (TFIID–TFIIA–promoter complex) (human) (UniProt P20226)", "sequence (P20226 whole entry, looked up, one chain of several)": "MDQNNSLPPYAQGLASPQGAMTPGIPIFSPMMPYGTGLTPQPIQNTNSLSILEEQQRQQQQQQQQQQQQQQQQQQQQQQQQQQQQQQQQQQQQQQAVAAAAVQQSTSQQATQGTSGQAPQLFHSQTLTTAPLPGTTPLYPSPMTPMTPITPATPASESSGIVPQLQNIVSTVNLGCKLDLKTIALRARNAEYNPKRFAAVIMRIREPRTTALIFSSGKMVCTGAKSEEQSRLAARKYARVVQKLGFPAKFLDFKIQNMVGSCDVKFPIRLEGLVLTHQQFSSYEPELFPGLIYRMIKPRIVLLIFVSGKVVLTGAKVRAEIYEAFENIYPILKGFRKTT", "experiment": "single-molecule fluorescence colocalisation (TIRF); supercore promoter DNA and a mutant control template (-63 to +90) immobilised via biotin–streptavidin; dye-labelled factors injected with unlabelled ones; a signal within ∼40 nm of a DNA position counted as binding; 2.5 Hz; 11.3 mM HEPES pH 7.9, 5.6 mM MgCl2, 45 mM KCl; the target protein is DNA-bound"}, "[2]": {"biological_target": "T1, TBP;TFIIA;TFIIB full length (human;human;human, UniProt P20226;P52655;P52657;Q00403 1-339;1-376;1-109;1-316, ||)", "T1 sequence (P20226 whole entry, chain 1 of 4)": "as the sequence (P20226 whole entry, looked up, one chain of several) above", "T1 sequence (P52655 whole entry, chain 2 of 4)": "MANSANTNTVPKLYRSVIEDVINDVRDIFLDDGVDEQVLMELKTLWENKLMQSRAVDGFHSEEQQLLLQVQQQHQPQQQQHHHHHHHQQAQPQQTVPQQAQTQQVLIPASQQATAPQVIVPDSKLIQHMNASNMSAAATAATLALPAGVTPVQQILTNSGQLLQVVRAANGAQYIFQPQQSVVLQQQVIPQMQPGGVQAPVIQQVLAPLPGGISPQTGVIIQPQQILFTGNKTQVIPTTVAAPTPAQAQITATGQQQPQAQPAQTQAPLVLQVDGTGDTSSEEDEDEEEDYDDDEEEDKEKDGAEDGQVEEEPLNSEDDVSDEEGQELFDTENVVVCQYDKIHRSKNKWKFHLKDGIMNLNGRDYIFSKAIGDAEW", "T1 sequence (P52657 whole entry, chain 3 of 4)": "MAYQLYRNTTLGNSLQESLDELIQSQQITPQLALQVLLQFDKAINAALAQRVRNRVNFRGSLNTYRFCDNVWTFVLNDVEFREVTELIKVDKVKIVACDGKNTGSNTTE", "T1 sequence (Q00403 whole entry, chain 4 of 4)": "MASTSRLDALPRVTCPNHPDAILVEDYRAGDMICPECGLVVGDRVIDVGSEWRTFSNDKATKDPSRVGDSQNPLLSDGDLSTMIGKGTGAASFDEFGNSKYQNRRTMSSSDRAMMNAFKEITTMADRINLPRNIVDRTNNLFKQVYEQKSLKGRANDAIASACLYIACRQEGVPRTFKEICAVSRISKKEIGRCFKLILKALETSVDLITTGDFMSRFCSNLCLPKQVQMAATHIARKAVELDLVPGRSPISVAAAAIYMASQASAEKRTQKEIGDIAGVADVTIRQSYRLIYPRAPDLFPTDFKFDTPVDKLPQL", "experiment": "EMSA; 10 nM DNA; Single-molecule: 11.3 mM HEPES pH 7.9, 5.6 mM MgCl2, 45 mM KCl, 45 uM EDTA, 4.5% glycerol, 3.6 ng/ul tRNA, 0.1 ng/ul poly(dG:dC), 0.09% Tween 20, 0.0045% NP40", "settings": "protein: recombinant;recombinant;recombinant; tags: N-terminal 6xHis-HaloTag; TMR; GST removed by Ulp1;N-terminal tag incl. thrombin site, Ni-NTA purified; Alexa647 or TMR; copies: 1;1;1;1; label: 5' Cy3 or Atto633; 5' biotin; blunt"}, "[3]": {"biological_target": "T1, TBP;TFIIA;TFIIB full length", "experiment": "EMSA; 10 nM DNA; similar efficiency to supercore; Single-molecule: 11.3 mM HEPES pH 7.9, 5.6 mM MgCl2, 45 mM KCl, 45 uM EDTA, 4.5% glycerol, 3.6 ng/ul tRNA, 0.1 ng/ul poly(dG:dC), 0.09% Tween 20, 0.0045% NP40", "settings": "protein: recombinant;recombinant;recombinant; tags: N-terminal 6xHis-HaloTag; TMR; GST removed by Ulp1;N-terminal tag incl. thrombin site, Ni-NTA purified; Alexa647 or TMR; copies: 1;1;1;1; label: 5' Cy3 or Atto633; 5' biotin; blunt"}},
  "data": [
    {"molecule": "TFIIB, full-length (FL) (from UniProt Q00403 1-316) (natural protein)", "values": [
      {"measurement": "DNA-binding efficiency (percent of supercore templates colocalising with TFIIB)", "setting": "[1]", "result": 30, "unit": "%"},
      {"measurement": "average residence time", "setting": "[1]", "result": 1.5, "unit": "s"},
      {"measurement": "average waiting time after TFIIA arrival (∼8 nM TFIIB)", "setting": "[1]", "result": 3, "unit": "s"}
    ]},
    {"molecule": "B1", "values": [
      {"measurement": "binding result", "setting": "[2]", "result": "binds"}
    ]},
    {"molecule": "B2", "values": [
      {"measurement": "binding result", "setting": "[3]", "result": "binds"}
    ]}
  ]
}
